Laboratory results from doi:10.1101/2023.11.28.568818 (bioRxiv, 2023).

Target: the molecule itself
Assay: ThT fluorescence + negative stain TEM

B1: jΔR3 peptide (C-terminal half of jR2R3, tau 300-313) (peptide)
peptide: VPGGGSVQIVYKPV
- binding result: binds

B2: jR2R3 peptide (tau residues 295-313) (peptide)
peptide: DNIKHVPGGGSVQIVYKPV
- binding result: binds

B3: jΔR3-P301L peptide (tau 300-313 with P301L) (peptide)
peptide: VLGGGSVQIVYKPV
- binding result: binds
